System: Escherichia coli TOP10
Test: shrunken log2 fold change of peptide-encoding DNA abundance (4.5 h post-induction vs induction); higher = less antimicrobial activity (less host growth inhibition)
Conditions: time post-induction: 4.5 h; library: site-saturation at positions 5, 18, 19, 20
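Also: peptides expressed intracellularly from a pBAD plasmid library in pooled LB shake-flask culture, induced with 0.3% L-arabinose, DNA abundance read by NGS, three biological replicates, DESeq2 with apeglm shrinkage.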

Sequence	shrunken log2 fold change
RRIRYRPPRLPRPRPRPAKVPRP	0.00738
RRIRKRPPRLPRPRPRPCATPRP	0.242
RRIRERPPRLPRPRPRPCEAPRP	-0.041
RRIRNRPPRLPRPRPRPHIEPRP	-0.195
RRIRTRPPRLPRPRPRPRPAPRP	0.555
RRIRARPPRLPRPRPRPKHEPRP	0.529
RRIRTRPPRLPRPRPRPKPFPRP	0.122
RRIRMRPPRLPRPRPRPIRWPRP	0.632
RRIRHRPPRLPRPRPRPTGQPRP	0.0378
RRIRQRPPRLPRPRPRPWCDPRP	-0.191
RRIRCRPPRLPRPRPRPNFRPRP	0.0821
RRIRRRPPRLPRPRPRPTEMPRP	0.477
RRIRLRPPRLPRPRPRPCWPPRP	0.0177
RRIRTRPPRLPRPRPRPGMRPRP	0.744
RRIRWRPPRLPRPRPRPGLYPRP	-0.036
RRIRMRPPRLPRPRPRPGKQPRP	-0.00189
RRIRMRPPRLPRPRPRPRKIPRP	0.322
RRIRARPPRLPRPRPRPIGMPRP	0.0267
RRIRQRPPRLPRPRPRPQRIPRP	-0.226
RRIRIRPPRLPRPRPRPTAVPRP	0.028
RRIRARPPRLPRPRPRPFNKPRP	-0.0214
RRIRHRPPRLPRPRPRPMIMPRP	-0.266
RRIRCRPPRLPRPRPRPVGAPRP	0.622
RRIRERPPRLPRPRPRPIPDPRP	-0.209
RRIRHRPPRLPRPRPRPDKTPRP	0.0185

Sequence	shrunken log2 fold change
RRIRSRPPRLPRPRPRPMQWPRP	-0.145
RRIRDRPPRLPRPRPRPFLTPRP	-0.0719
RRIRMRPPRLPRPRPRPTYRPRP	0.422
RRIRSRPPRLPRPRPRPAMGPRP	0.313
RRIRGRPPRLPRPRPRPSMNPRP	0.156
RRIRGRPPRLPRPRPRPRPIPRP	0.635
RRIRSRPPRLPRPRPRPASSPRP	-0.201
RRIRWRPPRLPRPRPRPQTNPRP	0.14
RRIRHRPPRLPRPRPRPSWGPRP	-0.0416
RRIRCRPPRLPRPRPRPSYDPRP	-0.428
RRIRRRPPRLPRPRPRPVMAPRP	0.281
RRIRFRPPRLPRPRPRPSGMPRP	-0.637
RRIRCRPPRLPRPRPRPRDRPRP	0.731
RRIRFRPPRLPRPRPRPSHNPRP	-0.782
RRIRYRPPRLPRPRPRPEAPPRP	-0.0405
RRIRMRPPRLPRPRPRPCRPPRP	0.00908
RRIRYRPPRLPRPRPRPAQIPRP	-0.347
RRIRFRPPRLPRPRPRPYNRPRP	-0.262
RRIRERPPRLPRPRPRPIVKPRP	-0.0406
RRIRWRPPRLPRPRPRPTACPRP	0.317
RRIRARPPRLPRPRPRPDFYPRP	0.0576
RRIRHRPPRLPRPRPRPEDKPRP	-0.0488
RRIRLRPPRLPRPRPRPASHPRP	0.0961
RRIRKRPPRLPRPRPRPTEEPRP	2.12
RRIRARPPRLPRPRPRPQHLPRP	-0.0998

Sequence	shrunken log2 fold change
RRIRFRPPRLPRPRPRPWTAPRP	-0.283
RRIRARPPRLPRPRPRPIVIPRP	-0.194
RRIRFRPPRLPRPRPRPIFHPRP	-0.295
RRIRMRPPRLPRPRPRPSMFPRP	-0.368
RRIRDRPPRLPRPRPRPHLIPRP	-0.0328
RRIRTRPPRLPRPRPRPTTRPRP	0.223
RRIRERPPRLPRPRPRPMILPRP	-0.388
RRIRVRPPRLPRPRPRPLKDPRP	-0.242
RRIRNRPPRLPRPRPRPCALPRP	-0.135
RRIRGRPPRLPRPRPRPLMDPRP	1.04
RRIRLRPPRLPRPRPRPAQVPRP	0.324
RRIRTRPPRLPRPRPRPDADPRP	0.0357
RRIRRRPPRLPRPRPRPKLCPRP	0.333
RRIRNRPPRLPRPRPRPKMIPRP	-0.495
RRIRCRPPRLPRPRPRPMRHPRP	-0.0878
RRIRPRPPRLPRPRPRPPIIPRP	-0.231
RRIRMRPPRLPRPRPRPYEYPRP	0.0662
RRIRWRPPRLPRPRPRPTKDPRP	0.214
RRIRPRPPRLPRPRPRPHFPPRP	-0.204
RRIRRRPPRLPRPRPRPELHPRP	0.793
RRIRGRPPRLPRPRPRPFGNPRP	0.0288
RRIRHRPPRLPRPRPRPPHPPRP	0.15
RRIRCRPPRLPRPRPRPMQMPRP	0.0279
RRIRWRPPRLPRPRPRPKICPRP	0.357
RRIRCRPPRLPRPRPRPFKVPRP	-0.0177

Sequence	shrunken log2 fold change
RRIRIRPPRLPRPRPRPVVIPRP	-0.307
RRIRERPPRLPRPRPRPPPYPRP	-0.231
RRIRPRPPRLPRPRPRPCHQPRP	0.0122
RRIRKRPPRLPRPRPRPKKLPRP	0.16
RRIRSRPPRLPRPRPRPRNGPRP	0.308
RRIRQRPPRLPRPRPRPATFPRP	0.157
RRIRDRPPRLPRPRPRPENWPRP	0.695
RRIRPRPPRLPRPRPRPCPEPRP	-0.123
RRIRRRPPRLPRPRPRPIDYPRP	-0.029
RRIRHRPPRLPRPRPRPIWMPRP	-0.0859
RRIRFRPPRLPRPRPRPWPRPRP	0.626
RRIRNRPPRLPRPRPRPKPRPRP	0.83
RRIRDRPPRLPRPRPRPQGVPRP	0.0763
RRIRERPPRLPRPRPRPCHLPRP	-0.176
RRIRRRPPRLPRPRPRPGWTPRP	0.326
RRIRRRPPRLPRPRPRPRTFPRP	0.338
RRIRMRPPRLPRPRPRPYFNPRP	-0.822
RRIRIRPPRLPRPRPRPICLPRP	-0.197
RRIRPRPPRLPRPRPRPALQPRP	0.0721
RRIRDRPPRLPRPRPRPLNAPRP	-0.0226
RRIRTRPPRLPRPRPRPAHRPRP	0.0856
RRIRKRPPRLPRPRPRPNRHPRP	-0.0212
RRIRDRPPRLPRPRPRPGIGPRP	0.76
RRIRARPPRLPRPRPRPNMTPRP	0.147
RRIRDRPPRLPRPRPRPFGFPRP	-0.0238

Sequence	shrunken log2 fold change
RRIRNRPPRLPRPRPRPGIGPRP	0.239
RRIRWRPPRLPRPRPRPENFPRP	0.00343
RRIRPRPPRLPRPRPRPIDAPRP	0.159
RRIRQRPPRLPRPRPRPNRFPRP	-0.00894
RRIRVRPPRLPRPRPRPQTFPRP	-0.122
RRIRNRPPRLPRPRPRPPVQPRP	0.0479
RRIRQRPPRLPRPRPRPSMCPRP	-0.194
RRIRCRPPRLPRPRPRPIYTPRP	-0.234
RRIRIRPPRLPRPRPRPVKKPRP	-0.0235
RRIRARPPRLPRPRPRPVRRPRP	0.723
RRIRWRPPRLPRPRPRPAYDPRP	0.126
RRIRQRPPRLPRPRPRPCLIPRP	-0.0017
RRIRSRPPRLPRPRPRPLMCPRP	-0.471
RRIRWRPPRLPRPRPRPSSDPRP	-0.0856
RRIRDRPPRLPRPRPRPTWGPRP	0.282
RRIRDRPPRLPRPRPRPDFIPRP	0.0951
RRIRHRPPRLPRPRPRPYCVPRP	-0.154
RRIRNRPPRLPRPRPRPQPAPRP	0.0618
RRIRYRPPRLPRPRPRPLTYPRP	-0.144
RRIRCRPPRLPRPRPRPCNIPRP	-0.3
RRIRERPPRLPRPRPRPCCRPRP	0.0107
RRIRNRPPRLPRPRPRPGNIPRP	-0.161
RRIRHRPPRLPRPRPRPVGVPRP	-0.00247
RRIRIRPPRLPRPRPRPMEKPRP	-0.229
RRIRARPPRLPRPRPRPCFSPRP	-0.137

Sequence	shrunken log2 fold change
RRIRVRPPRLPRPRPRPMHQPRP	0.02
RRIRDRPPRLPRPRPRPRGVPRP	0.393
RRIRPRPPRLPRPRPRPYSRPRP	-0.368
RRIRFRPPRLPRPRPRPSYLPRP	-0.736
RRIRERPPRLPRPRPRPKFIPRP	-0.144
RRIRYRPPRLPRPRPRPVACPRP	-0.187
RRIRMRPPRLPRPRPRPHVTPRP	-0.441
RRIRERPPRLPRPRPRPQAVPRP	0.0552
RRIRQRPPRLPRPRPRPPQAPRP	0.718
RRIRMRPPRLPRPRPRPFFCPRP	0.0186
RRIRHRPPRLPRPRPRPWRKPRP	-0.00968
RRIRKRPPRLPRPRPRPCLSPRP	-0.161
RRIRKRPPRLPRPRPRPFLQPRP	-0.0765
RRIRKRPPRLPRPRPRPSGSPRP	-0.0809
RRIRQRPPRLPRPRPRPNGMPRP	-0.0839
RRIRPRPPRLPRPRPRPEWPPRP	0.449
RRIRARPPRLPRPRPRPQDSPRP	-0.0459
RRIRKRPPRLPRPRPRPNRRPRP	0.0646
RRIRDRPPRLPRPRPRPHWTPRP	-0.179
RRIRTRPPRLPRPRPRPDVCPRP	0.11
RRIRGRPPRLPRPRPRPNKSPRP	0.96
RRIRHRPPRLPRPRPRPKLDPRP	0.225
RRIRVRPPRLPRPRPRPTMGPRP	0.04
RRIRLRPPRLPRPRPRPTTPPRP	0.138
RRIRMRPPRLPRPRPRPGGAPRP	1.17

From the supplement of paper PMC9112550, “Optimization of the antimicrobial peptide Bac7 by deep mutational scanning” (BMC Biology, 2022)
